According to US20150359861:

Target: Nicotinamide phosphoribosyltransferase (Nampt) (UniProt P43490)
Sequence of UniProt P43490 (P43490 whole entry, looked up): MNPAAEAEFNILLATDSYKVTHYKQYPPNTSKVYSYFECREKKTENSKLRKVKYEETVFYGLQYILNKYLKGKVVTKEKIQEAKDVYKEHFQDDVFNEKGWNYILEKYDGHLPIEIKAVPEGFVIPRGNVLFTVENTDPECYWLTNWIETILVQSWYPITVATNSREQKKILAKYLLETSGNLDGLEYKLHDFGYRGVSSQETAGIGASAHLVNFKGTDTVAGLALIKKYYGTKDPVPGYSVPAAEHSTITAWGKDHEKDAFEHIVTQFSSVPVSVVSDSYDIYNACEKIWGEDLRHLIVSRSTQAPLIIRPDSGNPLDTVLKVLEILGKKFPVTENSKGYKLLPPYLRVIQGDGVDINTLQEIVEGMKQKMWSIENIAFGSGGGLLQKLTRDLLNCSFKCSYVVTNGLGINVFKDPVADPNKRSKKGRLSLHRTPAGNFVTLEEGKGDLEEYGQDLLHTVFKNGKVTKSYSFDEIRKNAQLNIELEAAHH

purified recombinant human Eno1
Nampt activity (Cyclex Nampt activity assay kit on anti-Nampt immunoprecipitates of lysates from myotubes treated with 500 or 1000 ug/ml Eno1 for 48 hours): Eno1 treatment increased Nampt activity
